± gives the uncertainty stated by the source.
Assay: self-splicing fitness, log relative to wild type (ln ratio); higher = more splicing; Tetrahymena group I intron in knt gene, E. coli kanamycin selection, DiMSum; sequences stand for … in CUCUCU…GGAGGGAAAAGUUAUCAGGCAUGCACCUGGUAGCUAGUCUUUAAACCAAUAGAUUGCAUCGGUUUAAAAGGCAAGACCGUCAAAUUGCGGGAAAGGGGUCAACAGCCGUUCAGUACCAAGUCUCAGGGGAAACUUUGAGAUGGCCUUGCAAAGGGUAUGGUAAUAAGCUGACGGACAUGGUCCUAACCACGCAGCCAAGUCCUAAGUCAACAGAUCUUCUGUUGAUAUGGAUGCAGUUCACAGACUAAAUGUCGGUCGGGGAAGAUGUAUUCUUCUCAUAAGAUAUAGUCGGACCUCUCCUUAAUGGGAGCUAGCGGAUGAAGUGAUGCAACACUGGAGCCGCUGGGAACUAAUUUGUAUGCGAAAGUAUAUUGAUUAGUUUUGGAGUACUCGUGGUCG
Summary of the method: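 The eight P1ex-region nucleotides of an intron in the knt kanamycin-resistance gene on pET-22b(+) were all randomised and the library put into E. coli BL21(DE3). Six replicate transformations were grown overnight at 37°C or 30°C on LB agar with or without 25 μg/mL kanamycin, together with 100 μg/mL carbenicillin, 50 μM IPTG and 0.2% rhamnose. Colonies were pooled and amplicon-sequenced on an Illumina HiSeq 2500. Fitness from DiMSum is the error-weighted combination of wild-type-normalised replicate fold changes, kanamycin over none.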

Sequence | self-splicing fitness (ln) (30 °C) | self-splicing fitness (ln) (37 °C)
CGUUAGCAAUAUUACGUUAU | -2.76 ± 0.34 | -2.18 ± 0.37
UUCGAGCAAUAUUACGUUUU | -3.49 ± 0.18 | -2.77 ± 0.2
UAUCAGCAAUAUUACGUAGC | -2.63 ± 0.16 | -1.42 ± 0.2
AGAUAGCAAUAUUACGGCAU | -0.734 ± 0.11 | 0.242 ± 0.12
AGUUAGCAAUAUUACGAUAG | -3.19 ± 0.29 | -1.77 ± 0.29
UGGUAGCAAUAUUACGCGAU | -2.54 ± 0.28 | -0.974 ± 0.26
AUCCAGCAAUAUUACGAGUU | -1.33 ± 0.063 | -0.782 ± 0.077
AAUUAGCAAUAUUACGAGGC | -2.7 ± 0.32 | -2.6 ± 0.44
GAUCAGCAAUAUUACGGUUA | -0.25 ± 0.066 | 0.171 ± 0.067
CUUAAGCAAUAUUACGAGGC | -3.19 ± 0.32 | -2.53 ± 0.41
CGCCAGCAAUAUUACGUUGA | -2.84 ± 0.11 | -2.83 ± 0.13
GUCCAGCAAUAUUACGGUGA | -0.608 ± 0.051 | -0.131 ± 0.071
AGACAGCAAUAUUACGUAGU | -3.27 ± 0.1 | -1.88 ± 0.1
UGCAAGCAAUAUUACGUCAU | -3.29 ± 0.13 | -2.17 ± 0.14
UUUGAGCAAUAUUACGAUUU | -3.28 ± 0.24 | -2.05 ± 0.27
CUCUAGCAAUAUUACGACAC |  | -2.49 ± 0.25
AUGUAGCAAUAUUACGAGAC | -3.13 ± 0.31 | -2.09 ± 0.2
UGCUAGCAAUAUUACGAAAC | -2.87 ± 0.33 | -2.17 ± 0.31
UUCCAGCAAUAUUACGGCAG | -0.446 ± 0.075 | -0.096 ± 0.11
UCUGAGCAAUAUUACGCAAG | -3.36 ± 0.18 | -2.16 ± 0.19
GUCAAGCAAUAUUACGUAUU | -2.98 ± 0.12 | -1.84 ± 0.1
GAUGAGCAAUAUUACGUCUU | -1.41 ± 0.12 | -0.691 ± 0.12
GUGAAGCAAUAUUACGGCCC | -0.145 ± 0.18 | 
GCCAAGCAAUAUUACGUUUC | -2.86 ± 0.18 | -0.805 ± 0.12
UAACAGCAAUAUUACGGACC | -3.44 ± 0.43 | -1.98 ± 0.28

Sequence | self-splicing fitness (ln) (30 °C) | self-splicing fitness (ln) (37 °C)
UUCCAGCAAUAUUACGCAUA | -0.568 ± 0.093 | 0.161 ± 0.096
UCCCAGCAAUAUUACGCGCU | -4.15 ± 0.33 | -2.84 ± 0.34
CGAGAGCAAUAUUACGUAAC |  | -1.98 ± 0.34
UUUGAGCAAUAUUACGUAGC | -1.83 ± 0.32 | 
GAGAAGCAAUAUUACGUUAG | -2.54 ± 0.19 | -2.08 ± 0.19
AGGAAGCAAUAUUACGUACG | -1.15 ± 0.11 | -0.064 ± 0.1
AAAAAGCAAUAUUACGUUCA | -0.237 ± 0.075 | 0.0228 ± 0.089
CGUUAGCAAUAUUACGUGGG | -1.39 ± 0.12 | -1.79 ± 0.16
AAUAAGCAAUAUUACGUCGC | -2.48 ± 0.16 | -1.21 ± 0.14
AAAGAGCAAUAUUACGUAUC |  | -1.57 ± 0.27
GGGAAGCAAUAUUACGCAGU | -2 ± 0.13 | 0.176 ± 0.14
GAAAAGCAAUAUUACGUUUG | -2.71 ± 0.097 | -2.02 ± 0.15
CUAGAGCAAUAUUACGAUUG | -0.464 ± 0.071 | -0.493 ± 0.077
GCAUAGCAAUAUUACGUUCU | -2 ± 0.096 | -0.899 ± 0.1
CUGCAGCAAUAUUACGGGAU | -2.46 ± 0.096 | -2.1 ± 0.15
GCCGAGCAAUAUUACGAGCG | 0.333 ± 0.15 | -0.618 ± 0.19
CGACAGCAAUAUUACGGCCG | -2.22 ± 0.12 | -1.21 ± 0.12
AAUCAGCAAUAUUACGCCAG | -0.398 ± 0.16 | -1.58 ± 0.17
CGCCAGCAAUAUUACGAAAA | -3.4 ± 0.29 | -2.7 ± 0.2
CGCCAGCAAUAUUACGUAGC | -2.36 ± 0.17 | -3.11 ± 0.33
UUCUAGCAAUAUUACGAAUG | -2.45 ± 0.4 | 
CGUAAGCAAUAUUACGUCGG | -1.2 ± 0.08 | -0.133 ± 0.1
CAACAGCAAUAUUACGAUUG | -2.22 ± 0.063 | -1.42 ± 0.073
CUGAAGCAAUAUUACGCUUU | -3.4 ± 0.31 | -3.78 ± 0.42
AGAGAGCAAUAUUACGGGCU | -3.62 ± 0.23 | -1.48 ± 0.42

Sequence | self-splicing fitness (ln) (30 °C) | self-splicing fitness (ln) (37 °C)
UUGUAGCAAUAUUACGGAGC | -3.08 ± 0.25 | -2.38 ± 0.29
CCAUAGCAAUAUUACGUUUU | -3.58 ± 0.16 | -2.75 ± 0.17
CCGUAGCAAUAUUACGUAAG | 0.191 ± 0.047 | 0.106 ± 0.062
UUUAAGCAAUAUUACGUUAC | -3.76 ± 0.3 | -3.05 ± 0.26
GAGUAGCAAUAUUACGUUUG | -3.89 ± 0.16 | -3.88 ± 0.24
AGCAAGCAAUAUUACGUGCA | -0.675 ± 0.058 | 0.058 ± 0.077
CGGCAGCAAUAUUACGAAGG | -1.13 ± 0.12 | 0.373 ± 0.17
ACACAGCAAUAUUACGCCGG | -1.36 ± 0.09 | -0.466 ± 0.11
UAUCAGCAAUAUUACGGCGC | -2.69 ± 0.18 | -1.12 ± 0.21
GAUCAGCAAUAUUACGUGCC | -1.16 ± 0.13 | -0.652 ± 0.24
GCUCAGCAAUAUUACGAAGG | -0.909 ± 0.073 | -0.29 ± 0.1
ACAUAGCAAUAUUACGACUU | 0.0662 ± 0.074 | -0.163 ± 0.087
GUUGAGCAAUAUUACGAUUA | -1.94 ± 0.21 | -1.23 ± 0.22
CAGAAGCAAUAUUACGCGGA | -3.15 ± 0.15 | -3.11 ± 0.17
UAUUAGCAAUAUUACGUCGU | -2.82 ± 0.28 | -3.02 ± 0.32
GACAAGCAAUAUUACGCACG | -2.2 ± 0.13 | -1.07 ± 0.17
UAUCAGCAAUAUUACGGGGG | -1.51 ± 0.092 | -1.11 ± 0.14
GCAAAGCAAUAUUACGUACA | -1.31 ± 0.11 | -0.858 ± 0.13
ACGGAGCAAUAUUACGGAAU | -1.57 ± 0.39 | -2.5 ± 0.45
CGCCAGCAAUAUUACGGGCA | -0.258 ± 0.095 | 0.189 ± 0.095
AUUUAGCAAUAUUACGUAAA | -2.28 ± 0.21 | -1.09 ± 0.18
CGCGAGCAAUAUUACGCGUG | -2.29 ± 0.14 | -2.67 ± 0.15
CGCCAGCAAUAUUACGCAGU | -4.04 ± 0.18 | -2.18 ± 0.16
CGCAAGCAAUAUUACGCCGC |  | -1.24 ± 0.49
AGGCAGCAAUAUUACGUUAC | -3.46 ± 0.2 | -2.55 ± 0.31

Sequence | self-splicing fitness (ln) (30 °C) | self-splicing fitness (ln) (37 °C)
AUAAAGCAAUAUUACGAUGA | -0.326 ± 0.083 | 0.153 ± 0.12
CUCCAGCAAUAUUACGCAAC | -3.98 ± 0.43 | -3.13 ± 0.42
CCAUAGCAAUAUUACGAACC | -1.85 ± 0.5 | 
AAUAAGCAAUAUUACGCUAC | -3.62 ± 0.34 | -1.82 ± 0.23
GCACAGCAAUAUUACGCAAU | -1.14 ± 0.1 | -0.864 ± 0.087
UCUAAGCAAUAUUACGAUCG | -1.06 ± 0.099 | -0.234 ± 0.1
CGAAAGCAAUAUUACGUGUG | -0.273 ± 0.054 | 0.27 ± 0.066
GCCAAGCAAUAUUACGCACG | -2.84 ± 0.23 | -1.08 ± 0.16
GCAAAGCAAUAUUACGGGAU | -1.93 ± 0.067 | -0.98 ± 0.097
ACUGAGCAAUAUUACGGUGC | -3.32 ± 0.19 | -1.9 ± 0.18
CAAGAGCAAUAUUACGGUAG | -1.18 ± 0.076 | -1.01 ± 0.12
UGCCAGCAAUAUUACGUACC | -3.09 ± 0.22 | -1.98 ± 0.21
UUCGAGCAAUAUUACGCAAA | -0.773 ± 0.28 | -1.92 ± 0.26
GUCGAGCAAUAUUACGGACU | -3.29 ± 0.47 | -1.73 ± 0.24
AAAAAGCAAUAUUACGAGAG | -2.88 ± 0.11 | -1.95 ± 0.1
UAGUAGCAAUAUUACGAUGG | -2.93 ± 0.12 | -1.54 ± 0.11
UGAAAGCAAUAUUACGGAGA | -3.09 ± 0.2 | -2.54 ± 0.23
CUUUAGCAAUAUUACGCAAA | -2.51 ± 0.21 | -1.34 ± 0.2
AAUGAGCAAUAUUACGUAAU | -3.08 ± 0.17 | -1.33 ± 0.15
CGAGAGCAAUAUUACGUAGG | -3.03 ± 0.15 | -1.39 ± 0.15
CUACAGCAAUAUUACGAAGC | -3.61 ± 0.24 | -2.85 ± 0.25
GUAUAGCAAUAUUACGGACC | -1.89 ± 0.5 | -2.56 ± 0.3
